Measurements as given in patent publication US20240400670A1 (JIANGSU HENGRUI PHARMACEUTICALS, published 2024).

How the values were obtained:
[1] = biological target: BAFF (R&D Systems, 7537-BF); experiment: cell-based or functional assay
[2] = biological target: T1, human APRIL (R&D Systems, 5860-AP-010/CF) (human, UniProt O75888 105-250, limits assumed); experiment: cell-based or functional assay
T1 sequence (looked up): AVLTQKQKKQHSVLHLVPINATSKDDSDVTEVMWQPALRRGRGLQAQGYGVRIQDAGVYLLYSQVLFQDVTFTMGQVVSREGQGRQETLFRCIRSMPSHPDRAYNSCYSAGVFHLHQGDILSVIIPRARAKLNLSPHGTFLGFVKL

[3] = biological target: T1, human APRIL (R&D Systems, …); experiment: competition ELISA, blocks APRIL/TACI; TACI coated, biotin-APRIL
Experimental: (§1) The specific procedures are as follows:
(§2) The receptor protein was diluted to 2 μg/mL with a PBS (BasalMedia, B320) buffer at pH 7.4 and added to a 96-well microplate (Corning, 3590) at 100 μL/well. The plate was incubated at 4° C. overnight. After the liquid was discarded, 1 % Casein blocking solution (Thermo, 37528) was added at 200 μL/well for blocking, and the plate was incubated at 37° C. for 2 h. After the blocking was complete, the blocking solution was discarded, and the plate was washed 3 times with a PBST buffer (pH 7.4 PBS containing 0.1 % tween-20) for later use. After the biotin-labeled ligand protein at a fixed concentration was mixed with an antibody or fusion protein diluted in a gradient, the mixture was pre-incubated at 37° C. for 30 min and then added to the blocked microplate. The plate was incubated at 37° C. for 1.5 h. After the incubation was complete, the plate was washed 3 times with PBST. Streptavidin-HRP (Invitrogen, 434323, diluted at 1:4000) was added at 100 μL/well, and the plate was incubated at 37° C. for 1 h. The supernatant was removed. […] The absorbance values at 450 nm were taken using a microplate reader. Curves for the inhibition of binding of the ligands to the receptors were fitted using software, and the IC₅₀ values were calculated.

[4] = biological target: T2, human BAFF (Sino Biological, 10056-HNCH) (human, UniProt Q9Y275 134-285); experiment: competition ELISA, blocks BAFF/BCMA; BCMA coated, biotin-BAFF
T2 construct: also called BAFF protein
Experimental: as §1, §2

[5] = biological target: T2, human BAFF (Sino Biological, 10056-HNCH); experiment: competition ELISA, blocks BAFF/TACI; TACI coated, biotin-BAFF
Experimental: as §1, §2

[6] = biological target: T2, human BAFF (Sino Biological, 10056-HNCH); experiment: competition ELISA, blocks BAFF/BAFF-R; BAFF-R coated, biotin-BAFF
Experimental: as §1, §2

[7] = biological target: T3, human BAFF (ACROBiosystems, BAF-H52D4) (human, UniProt Q9Y275 134-285); experiment: ELISA, sample coated, BAFF titrated, anti-His-HRP
T3 construct: detected with anti-His-HRP
Experimental: as §1
The test sample was diluted to 2 μg/mL with a PBS (BasalMedia, B320) buffer at pH 7.4 and added to a 96-well microplate (Coming, 3590) at 100 μL/well. The plate was incubated at 4° C. overnight. After the liquid was discarded, 5 % skim milk (BD, 232100) diluted with PBS was added at 300 μL/well for blocking, and the mixture was incubated at 37° C. for 2 h. After the blocking was completed, the blocking solution was discarded, and the plate was washed 3 times with a PBST buffer (pH 7.4, PBS containing 0.1 % tween-20). […] After the incubation, the plate was washed 3 times with PBST. […] After the plate was washed 3 times with PBST, a TMB chromogenic substrate (KPL, 5120-0077) was added at 100 μL/well, and the mixture was incubated at room temperature for 10⁻¹⁵ min, and then 1 M H₂SO₄ was added at 50 μL/well to terminate the reaction. The absorbance values at 450 nm were taken using a microplate reader. The binding curves of antibodies to antigens were fitted using software, and the EC₅₀ values were calculated.

[8] = biological target: T1, human APRIL (R&D Systems, …); experiment: competition ELISA, blocks APRIL/BCMA; BCMA coated, biotin-APRIL
Experimental: as §1, §2

[9] = biological target: mouse BAFF (Acro Biosystems, BAF-M521y) (mouse, UniProt Q9WU72 127-309, limits assumed); experiment: SPR (Biacore), Protein A capture of sample, 1:1 model
Experimental: (§3) A certain amount of test sample was subjected to affinity capture by a biosensor chip Protein A (GE, 29127556), and then antigens at a series of concentration gradients were allowed to flow on the surface of the chip. The reaction signals were detected in real time by using Biacore (GE, 8 K) to obtain association and dissociation curves. After the dissociation was completed for each cycle, the biochip was washed and regenerated with a 10 mM glycine-hydrochloric acid solution at pH 1.5 (GE, BR-1003-54). Fitting was performed based on the experimental data using BlAevaluation version 4.1 software with a 1:1 model, and affinity values were obtained.

[10] = biological target: T2, human BAFF (Sino Biological, 10056-HNCH); experiment: as above
Experimental: as §3

[11] = biological target: cynomolgus monkey BAFF (Kactus, BAF-CM412) (cynomolgus monkey, UniProt A0A2K5V2X4 134-285); experiment: as above
Experimental: as §3

[12] = biological target: T1, human APRIL (R&D Systems, …); experiment: as above
Experimental: as §3

Activity in inhibiting proliferation of B cells (IC50, pM), BAFF [1]: 70.1 pM
Activity in inhibiting proliferation of B cells (IC50, pM), APRIL [2]: 1990 pM
IC50 [3]: 64.9 nM
IC50 [4]: 4.86 nM
IC50 [5]: 6.07 nM
IC50 [6]: 7.57 nM
EC50 [7]: 21.5 nM
IC50 [8]: 484 nM
Kd [9]: 0.121 nM
koff [9]: 8.98e-05 s⁻¹
kon [9]: 740000 M⁻¹ s⁻¹
Kd [10]: 0.186 nM
koff [10]: 0.00018 s⁻¹
kon [10]: 964000 M⁻¹ s⁻¹
Kd [11]: 0.258 nM
koff [11]: 9.54e-05 s⁻¹
kon [11]: 370000 M⁻¹ s⁻¹
Kd [12]: 0.0439 nM
koff [12]: 0.00753 s⁻¹
kon [12]: 1.72e+08 M⁻¹ s⁻¹
B1: RCT-18 (Fc fusion)
chain: SRVDQEERFPQGLWTGVAMRSCPEEQYWDPLLGTCMSCKTICNHQSQRTCAAFCRSLSCRKEQGKFYDHLLRDCISCASICGQHPKQCAYFCENKLRSPVNLPPELDKTHTCPPCPAPEAEGAPSVFLFPPKPKDTLMISRTPEVTCVVVDVSHEDPEVKFNWYVDGVEVHNAKTKPREEQYNSTYRVVSVLTVLHQDWLNGKEYKCKVSNKALPSSIEKTISKAKGQPREPQVYTLPPSRDELTKNQVSLTCLVKGFYPSDIAVEWESNGQPENNYKTTPPVLDSDGSFFLYSKLTVDKSRWQQGNVFSCSVMHEALHNHYTQKSLSLSPGK
notes: control TACI-Fc; also called telitacicept; RC18
